Measured values as given in US20190100597A1.

Target: human CD20 on CD20-expressing cell lines (human) (UniProt P11836)
Test: cell-based or functional assay

rituximab-derived anti-human CD20 IgM+J (antibody), sequence (heavy): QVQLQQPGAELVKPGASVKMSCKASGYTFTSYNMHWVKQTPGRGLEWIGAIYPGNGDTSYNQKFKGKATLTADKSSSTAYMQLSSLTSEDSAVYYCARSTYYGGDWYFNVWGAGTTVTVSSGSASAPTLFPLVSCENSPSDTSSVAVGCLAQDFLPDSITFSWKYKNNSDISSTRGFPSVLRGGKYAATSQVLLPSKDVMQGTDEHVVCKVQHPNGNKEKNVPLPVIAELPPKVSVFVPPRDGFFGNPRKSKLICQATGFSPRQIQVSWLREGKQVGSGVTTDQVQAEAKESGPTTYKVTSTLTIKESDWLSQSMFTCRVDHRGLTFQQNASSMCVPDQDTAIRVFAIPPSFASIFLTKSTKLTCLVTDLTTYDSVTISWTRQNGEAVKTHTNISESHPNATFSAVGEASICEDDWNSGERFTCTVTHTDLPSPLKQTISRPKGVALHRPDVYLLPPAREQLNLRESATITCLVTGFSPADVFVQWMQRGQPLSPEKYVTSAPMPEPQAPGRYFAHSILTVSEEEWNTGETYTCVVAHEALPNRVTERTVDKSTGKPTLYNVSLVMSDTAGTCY
rituximab-derived anti-human CD20 IgM+J (antibody), sequence (light): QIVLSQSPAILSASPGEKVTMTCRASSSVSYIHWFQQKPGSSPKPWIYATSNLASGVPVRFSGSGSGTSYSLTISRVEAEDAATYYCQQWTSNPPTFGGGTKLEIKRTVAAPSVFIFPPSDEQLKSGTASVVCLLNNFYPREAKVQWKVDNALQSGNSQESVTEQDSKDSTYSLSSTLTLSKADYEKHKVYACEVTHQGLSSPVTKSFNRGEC
rituximab-derived anti-human CD20 IgM+J (antibody), sequence (chain): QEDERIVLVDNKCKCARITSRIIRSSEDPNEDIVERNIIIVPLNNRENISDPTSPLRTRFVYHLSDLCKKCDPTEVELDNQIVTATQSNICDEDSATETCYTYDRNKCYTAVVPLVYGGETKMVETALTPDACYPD
human CD20 on CD20-expressing cell lines (human), sequence (P11836 whole entry): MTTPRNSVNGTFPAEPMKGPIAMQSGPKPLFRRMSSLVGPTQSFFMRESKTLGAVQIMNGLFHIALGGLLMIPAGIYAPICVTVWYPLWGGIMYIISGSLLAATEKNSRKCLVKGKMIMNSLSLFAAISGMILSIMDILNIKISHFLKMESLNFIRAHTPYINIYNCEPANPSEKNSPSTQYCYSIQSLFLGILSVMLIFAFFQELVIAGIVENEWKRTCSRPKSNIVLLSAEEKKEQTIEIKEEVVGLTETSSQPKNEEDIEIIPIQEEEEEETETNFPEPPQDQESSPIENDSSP

Q: For “rituximab-derived anti-human CD20 IgM+J (antibody)”, which CDC (IC50) on Raji cells is on record?
A: 2 µg/mL

Q: And the CDC EC50 on DOHH-2 cells?
A: 90 pM

Q: And the CDC EC50 on Z-138 cells?
A: 410 pM
